Source: publication PMC2586972 (Structure (London, England : 1993), 2008)
Each block holds one binder with its values, some of them ahead of it.

Columns and labels:
[1] = target: T1, Gα13 (Mus musculus, UniProt P27601); test: ITC
T1 chain: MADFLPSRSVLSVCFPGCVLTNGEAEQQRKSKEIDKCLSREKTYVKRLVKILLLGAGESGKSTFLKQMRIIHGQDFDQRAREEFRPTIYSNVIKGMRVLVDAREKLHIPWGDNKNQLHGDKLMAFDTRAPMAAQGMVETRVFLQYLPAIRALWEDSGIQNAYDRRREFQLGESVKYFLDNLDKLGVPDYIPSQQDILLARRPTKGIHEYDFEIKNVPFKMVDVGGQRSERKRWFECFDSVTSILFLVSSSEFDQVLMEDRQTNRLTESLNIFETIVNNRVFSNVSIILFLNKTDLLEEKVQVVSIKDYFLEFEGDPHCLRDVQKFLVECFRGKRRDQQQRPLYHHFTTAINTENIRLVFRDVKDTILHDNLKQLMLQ

[2] = target: T2, N-terminally truncated Gα13(Q226L), GDP-bound (mouse, UniProt P27601 41-377, Q226L); test: crystal structure
T2 sequence (looked up): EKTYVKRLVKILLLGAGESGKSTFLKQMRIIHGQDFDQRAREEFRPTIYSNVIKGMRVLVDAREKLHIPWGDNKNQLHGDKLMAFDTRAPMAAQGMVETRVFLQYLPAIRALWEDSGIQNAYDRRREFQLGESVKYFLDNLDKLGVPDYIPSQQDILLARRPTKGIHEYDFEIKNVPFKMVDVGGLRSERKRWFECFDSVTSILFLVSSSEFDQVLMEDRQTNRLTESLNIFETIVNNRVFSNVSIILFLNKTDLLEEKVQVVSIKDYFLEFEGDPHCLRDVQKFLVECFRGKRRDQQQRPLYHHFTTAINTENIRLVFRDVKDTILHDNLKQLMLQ

- Kd [1]: ~500 nM
B1: PDZRhoGEF rgRGS (protein)
chain: ESDIIFQDLEKLKSRPAHLGVFLRYIFSQADPSPLLFYLCAEVYQQASPKDSRSLGKDIWNIFLEKNAPLRVKIPEMLQAEIDSRLRNSEDARGVLCEAQEAAMPEIQEQIHDYRTKRTLGLGSLYGENDLLDLDGDPLRERQVAEKQLAALGDILSKYEEDRSAPMDFALNTYMSHAGIR
modifications: GDP·AlF-bound Gα13

- Kd [1]: ~300 nM
B2: PDZRhoGEF rgRGS (protein)
chain: B1 chain
modifications: GTPγS-bound Gα13

- binding result [2]: binds
B3: rgRGS domain of PDZRhoGEF/GTRAP48 (residues 307–508) (domain or fragment, rat, UniProt Q9ES67 307-508, looked up)
chain: LIIGPEEDYDPGYFNNESDIIFQDLEKLKSHPAYLVVFLRYILSQADPGPLLFYLCSEVYQQTNPKDSRSLGKDIWNIFLEKNAPLRVKIPEMLQAEIDLRLRNNEDPRNVLCEAQEAVMLEIQEQINDYRSKRTLGLGSLYGENDLLGLDGDPLRERQMAEKQLAALGDILSKYEEDRSAPMDFAVNTFMSHAGIRLRESR
